This series concerns the target Ferritin-H (expression plasmid pcEXV-1) (Homo sapiens) (UniProt P02794). Nature of the series: cell_activity. The following applies: CV-1 cells, EKLF-stimulated CAT reporter.

Ferritin-H (expression plasmid pcEXV-1) (Homo sapiens), sequence (P02794 2-183): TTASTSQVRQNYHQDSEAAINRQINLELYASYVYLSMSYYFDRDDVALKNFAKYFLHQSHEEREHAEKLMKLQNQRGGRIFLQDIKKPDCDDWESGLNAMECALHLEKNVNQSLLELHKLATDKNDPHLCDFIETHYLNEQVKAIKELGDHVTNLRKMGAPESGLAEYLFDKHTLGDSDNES

“beta-globin -610/+20 promoter in CAT reporter” registered an activity of 62 % repression.

(Values after patent publication US20090232783.)
